Test results taken from patent EP4631523A2.

Columns and labels:
interleukin 6 (IL-6) [1] = target: interleukin 6 (IL-6) (UniProt P05231); assay: IL-6 binding ELISA; 40±2°C, 3 months
interleukin 6 (IL-6) [2] = target: interleukin 6 (IL-6) (UniProt P05231); assay: IL-6 binding ELISA; 40±2°C, 3 months; remark: listed apart in the source
interleukin 6 (IL-6) [3] = target: interleukin 6 (IL-6) (UniProt P05231); assay: IL-6 binding ELISA; 5±3°C, 12 months
interleukin 6 (IL-6) [4] = target: interleukin 6 (IL-6) (UniProt P05231); assay: IL-6 binding ELISA; 40±2°C, 3 months; remark: listed apart in the source
interleukin 6 (IL-6) [5] = target: interleukin 6 (IL-6) (UniProt P05231); assay: IL-6 binding ELISA; 5±3°C, 6 months
interleukin 6 (IL-6) [6] = target: interleukin 6 (IL-6) (UniProt P05231); assay: IL-6 binding ELISA; 40±2°C, 0 months
interleukin 6 (IL-6) [7] = target: interleukin 6 (IL-6) (UniProt P05231); assay: IL-6 binding ELISA; 5±3°C, 9 months
interleukin 6 (IL-6) [8] = target: interleukin 6 (IL-6) (UniProt P05231); assay: IL-6 binding ELISA; 25±2°C, 1 month
interleukin 6 (IL-6) [9] = target: interleukin 6 (IL-6) (UniProt P05231); assay: IL-6 binding ELISA; 5±3°C, 0 months
interleukin 6 (IL-6) [10] = target: interleukin 6 (IL-6) (UniProt P05231); assay: IL-6 binding ELISA; 5±3°C, 0 months; remark: listed apart in the source
interleukin 6 (IL-6) [11] = target: interleukin 6 (IL-6) (UniProt P05231); assay: IL-6 binding ELISA; 25±2°C, 1 month; remark: listed apart in the source
interleukin 6 (IL-6) [12] = target: interleukin 6 (IL-6) (UniProt P05231); assay: IL-6 binding ELISA; 25±2°C, 6 months
interleukin 6 (IL-6) [13] = target: interleukin 6 (IL-6) (UniProt P05231); assay: IL-6 binding ELISA; 5±3°C, 3 months
interleukin 6 (IL-6) [14] = target: interleukin 6 (IL-6) (UniProt P05231); assay: IL-6 binding ELISA; 25±2°C, 3 months
interleukin 6 (IL-6) [15] = target: interleukin 6 (IL-6) (UniProt P05231); assay: IL-6 binding ELISA, relative to a Phase I DS lot; 20 mg/mL formulation without methionine, T0 (frozen aliquot)
interleukin 6 (IL-6) [16] = target: interleukin 6 (IL-6) (UniProt P05231); assay: IL-6 binding ELISA; 25±2°C, 3 months; remark: listed apart in the source
interleukin 6 (IL-6) [17] = target: interleukin 6 (IL-6) (UniProt P05231); assay: IL-6 binding ELISA; 5±3°C, 1 month
interleukin 6 (IL-6) [18] = target: interleukin 6 (IL-6) (UniProt P05231); assay: IL-6 binding ELISA; 25±2°C, 0 months
interleukin 6 (IL-6) [19] = target: interleukin 6 (IL-6) (UniProt P05231); assay: IL-6 binding ELISA; 40±2°C, 3 months; remark: listed apart in the source
interleukin 6 (IL-6) [20] = target: interleukin 6 (IL-6) (UniProt P05231); assay: IL-6 binding ELISA; 5±3°C, 1 month; remark: listed apart in the source
interleukin 6 (IL-6) [21] = target: interleukin 6 (IL-6) (UniProt P05231); assay: IL-6 binding ELISA; 25±2°C, 6 months; remark: listed apart in the source
interleukin 6 (IL-6) [22] = target: interleukin 6 (IL-6) (UniProt P05231); assay: IL-6 binding ELISA; 5±3°C, 0 months; remark: listed apart in the source
interleukin 6 (IL-6) [23] = target: interleukin 6 (IL-6) (UniProt P05231); assay: IL-6 binding ELISA; 25±2°C, 6 months; remark: listed apart in the source
interleukin 6 (IL-6) [24] = target: interleukin 6 (IL-6) (UniProt P05231); assay: IL-6 binding ELISA; 40±2°C, 0 months; remark: listed apart in the source
interleukin 6 (IL-6) [25] = target: interleukin 6 (IL-6) (UniProt P05231); assay: IL-6 binding ELISA; 5±3°C, 3 months; remark: listed apart in the source
interleukin 6 (IL-6) [26] = target: interleukin 6 (IL-6) (UniProt P05231); assay: IL-6 binding ELISA, relative to a Phase I DS lot; 20 mg/mL formulation without methionine, 12 months at 2 to 8°C
interleukin 6 (IL-6) [27] = target: interleukin 6 (IL-6) (UniProt P05231); assay: IL-6 binding ELISA; 25±2°C, 0 months; remark: listed apart in the source
interleukin 6 (IL-6) [28] = target: interleukin 6 (IL-6) (UniProt P05231); assay: IL-6 binding ELISA; 40±2°C, 0 months; remark: listed apart in the source
interleukin 6 (IL-6) [29] = target: interleukin 6 (IL-6) (UniProt P05231); assay: IL-6 binding ELISA; 25±2°C, 6 months; remark: listed apart in the source
interleukin 6 (IL-6) [30] = target: interleukin 6 (IL-6) (UniProt P05231); assay: IL-6 binding ELISA, relative to a Phase I DS lot; 120 mg/mL formulation without methionine, 9 months at 2 to 8°C
interleukin 6 (IL-6) [31] = target: interleukin 6 (IL-6) (UniProt P05231); assay: IL-6 binding ELISA; 40±2°C, 3 months; remark: listed apart in the source
interleukin 6 (IL-6) [32] = target: interleukin 6 (IL-6) (UniProt P05231); assay: IL-6 binding ELISA; 5±3°C, 6 months; remark: listed apart in the source

UniProt P05231, sequence (P05231 30-212 limits assumed): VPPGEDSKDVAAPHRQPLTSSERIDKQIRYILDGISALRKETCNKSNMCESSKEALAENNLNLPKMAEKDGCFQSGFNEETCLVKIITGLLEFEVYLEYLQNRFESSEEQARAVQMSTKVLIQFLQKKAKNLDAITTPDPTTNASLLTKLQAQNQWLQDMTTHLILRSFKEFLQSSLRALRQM

IL-6 binding ELISA (% of Reference Standard) (interleukin 6 (IL-6) [1]): 99%
IL-6 binding ELISA (% of Reference Standard) (interleukin 6 (IL-6) [2]): 97%
IL-6 binding ELISA (% of Reference Standard) (interleukin 6 (IL-6) [3]): 95%
IL-6 binding ELISA (% of Reference Standard) (interleukin 6 (IL-6) [4]): 94%
IL-6 binding ELISA (% of Reference Standard) (interleukin 6 (IL-6) [5]): 95%
IL-6 binding ELISA (% of Reference Standard) (interleukin 6 (IL-6) [6]): 97%
IL-6 binding ELISA (% of Reference Standard) (interleukin 6 (IL-6) [7]): 89%
IL-6 binding ELISA (% of Reference Standard) (interleukin 6 (IL-6) [8]): 98%
IL-6 binding ELISA (% of Reference Standard) (interleukin 6 (IL-6) [9]): 97%
IL-6 binding ELISA (% of Reference Standard) (interleukin 6 (IL-6) [10]): 103%
IL-6 binding ELISA (% of Reference Standard) (interleukin 6 (IL-6) [11]): 110%
IL-6 binding ELISA (% of Reference Standard) (interleukin 6 (IL-6) [12]): 100%
IL-6 binding ELISA (% of Reference Standard) (interleukin 6 (IL-6) [13]): 85%
IL-6 binding ELISA (% of Reference Standard) (interleukin 6 (IL-6) [14]): 84%
IL-6 binding ELISA (% of assay control) (interleukin 6 (IL-6) [15]): 61%
IL-6 binding ELISA (% of Reference Standard) (interleukin 6 (IL-6) [16]): 97%
IL-6 binding ELISA (% of Reference Standard) (interleukin 6 (IL-6) [17]): 86%
IL-6 binding ELISA (% of Reference Standard) (interleukin 6 (IL-6) [18]): 94%
IL-6 binding ELISA (% of Reference Standard) (interleukin 6 (IL-6) [19]): 78%
IL-6 binding ELISA (% of Reference Standard) (interleukin 6 (IL-6) [20]): 98%
IL-6 binding ELISA (% of Reference Standard) (interleukin 6 (IL-6) [21]): 92%
IL-6 binding ELISA (% of Reference Standard) (interleukin 6 (IL-6) [22]): 94%
IL-6 binding ELISA (% of Reference Standard) (interleukin 6 (IL-6) [23]): 88%
IL-6 binding ELISA (% of Reference Standard) (interleukin 6 (IL-6) [24]): 96%
IL-6 binding ELISA (% of Reference Standard) (interleukin 6 (IL-6) [25]): 83%
IL-6 binding ELISA (% of assay control) (interleukin 6 (IL-6) [26]): 84%
IL-6 binding ELISA (% of Reference Standard) (interleukin 6 (IL-6) [27]): 97%
IL-6 binding ELISA (% of Reference Standard) (interleukin 6 (IL-6) [28]): 103%
IL-6 binding ELISA (% of Reference Standard) (interleukin 6 (IL-6) [29]): 81%
IL-6 binding ELISA (% of assay control) (interleukin 6 (IL-6) [30]): 79%
IL-6 binding ELISA (% of Reference Standard) (interleukin 6 (IL-6) [31]): 86%
IL-6 binding ELISA (% of Reference Standard) (interleukin 6 (IL-6) [32]): 83%
B1: COR-001 antibody (antibody, human IgG1, kappa, V domains shown)
VH: EVQLVESGGGLVQPGGSLRLSCAASGFTISSNYMIWVRQAPGKGLEWVSDLYYYAGDTYYADSVKGRFTMSRDISKNTVYLQMNSLRAEDTAVYYCARWADDHPPWIDLWGRGTLVTVSS
VL: DIQMTQSPSTLSASVGDRVTITCRASQGISSWLAWYQQKPGKAPKVLIYKASTLESGVPSRFSGSGSGTEFTLTISSLQPDDFATYYCQQSWLGGSFGQGTKLEIKR
